From patent US20090023158A1

How the values were obtained:
[1] = test system: C99GVP-N27S
[2] = test system: C99GVP-SLSS
[3] = test system: C99GVP-S26L
[4] = test system: C99GVP-SREBP1-gsnk
[5] = test system: C99GVP-G25S
[6] = test system: C99GVP-K28S

Substance: gamma secretase (endogenous, HEK cells)
- AICD production and signaling activity [1]: little difference in their respective AICD production (FIG. 9A, lower panels) and signaling activity (FIG. 9D)
- secreted Aβ [1]: the other two mutations, G25S and N27S, showed no obvious effect on secreted Aβ
- secreted Aβ [2]: This mutation led to a marked reduction (˜97%) in secreted Aβ
- AICD production and signaling activity [3]: little difference in their respective AICD production (FIG. 9A, lower panels) and signaling activity (FIG. 9D)
- Aβ40 (secreted, ELISA) [3]: a 52.7±2.3% drop of Aβ40
- total Aβ (secreted) [3]: The S26L mutation led to a 65.7±8.5% reduction in total Aβ
- Aβ secretion [4]: also maintained normal Aβ secretion
- AICD production and signaling activity [5]: little difference in their respective AICD production (FIG. 9A, lower panels) and signaling activity (FIG. 9D)
- secreted Aβ [5]: the other two mutations, G25S and N27S, showed no obvious effect on secreted Aβ
- AICD production and signaling activity [6]: little difference in their respective AICD production (FIG. 9A, lower panels) and signaling activity (FIG. 9D)
- Aβ40 (secreted, ELISA) [6]: the K28S substitution resulted in an even more substantial (˜90%) decrease in both measurements
- total Aβ (secreted) [6]: the K28S substitution resulted in an even more substantial (˜90%) decrease in both measurements
